This is an account of results in patent US20240034757A1 (OXFORD UNIVERSITY INNOVATION, published 2024).

The labels stand for the following.
B4: CXCL13_HUMAN (ligand)
chain: VLEVYYTSLRCRCVQESSVFIPRRFIDRIQILPRGNGCPRKEIIVWKKNKSIVCVDPQAEWIQRMMEVLRKRSSSTLPVPVFKRKIP

One test addresses CCL7_HUMAN (human, UniProt P80098 24-99). Description: cell-based or functional assay.
The target in the next test is CCL2_HUMAN (human, UniProt P13500 24-99). The experiment in a line: cell-based or functional assay.
The next test deals with T1, CCL5_HUMAN (human, UniProt P13501 24-91).
T1 sequence: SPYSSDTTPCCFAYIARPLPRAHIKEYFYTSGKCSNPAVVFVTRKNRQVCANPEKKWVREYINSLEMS
The experiment in a line: cell-based or functional assay.

The next test concerns the target T2, CCL8_HUMAN (human, UniProt P80075 24-99).
T2 sequence (looked up): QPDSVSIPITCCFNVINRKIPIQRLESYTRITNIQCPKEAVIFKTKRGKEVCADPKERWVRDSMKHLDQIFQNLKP
Description: cell-based or functional assay.

The target of the next test is T3, CXCL7_HUMAN (human, UniProt P02775 59-128).
T3 sequence: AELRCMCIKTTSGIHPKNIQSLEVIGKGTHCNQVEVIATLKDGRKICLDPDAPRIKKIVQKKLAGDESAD
Description: BLI [Cont.].

A further test deals with T4, CXCL8_HUMAN (human, UniProt P10145 28-99).
T4 sequence: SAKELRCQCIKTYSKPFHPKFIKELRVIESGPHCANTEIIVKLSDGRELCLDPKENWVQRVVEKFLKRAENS
Description: BLI [Cont.].

The target in a further test is T5, CXCL4_HUMAN (human, UniProt P02776 32-101).
T5 sequence: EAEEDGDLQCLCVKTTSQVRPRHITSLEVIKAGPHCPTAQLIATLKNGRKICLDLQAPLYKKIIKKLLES
Description: BLI [Cont.].

The target in a further test is T6, CXCL5_HUMAN (human, UniProt P42830 41-114).
T6 sequence: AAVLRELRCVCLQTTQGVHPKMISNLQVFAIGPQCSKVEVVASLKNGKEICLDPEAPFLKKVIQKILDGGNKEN
The experiment in a line: BLI [Cont.].

The target in another test is T7, CXCL2_HUMAN (human, UniProt P19875 35-107).
T7 sequence: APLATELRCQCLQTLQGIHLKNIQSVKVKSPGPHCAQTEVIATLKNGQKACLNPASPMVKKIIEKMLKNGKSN
The experiment in a line: BLI [Cont.].

In test [1] the target is T8, CXCL10_HUMAN (human, UniProt P02778 22-98).
T8 sequence: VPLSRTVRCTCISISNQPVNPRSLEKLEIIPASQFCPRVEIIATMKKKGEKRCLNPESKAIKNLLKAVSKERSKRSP
The experiment in a line: yeast surface display FACS re-test. Also: test concentration or dose not given here.

In a further test the target is T9, CXCL11_HUMAN (human, UniProt O14625 22-94).
T9 sequence: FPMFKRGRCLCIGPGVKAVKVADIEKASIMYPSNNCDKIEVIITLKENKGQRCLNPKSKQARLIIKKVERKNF
The experiment in a line: BLI.

For a further test, the target named is CXCL12_HUMAN (human, UniProt P48061 22-89). Description: BLI.
In a further test the target is T10, CXCL14_HUMAN (human, UniProt O95715 35-111).
T10 sequence: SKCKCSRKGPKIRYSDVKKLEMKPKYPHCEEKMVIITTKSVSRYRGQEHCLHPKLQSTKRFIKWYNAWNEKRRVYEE
The experiment in a line: BLI.

The target of another test is T11, CXCL6_HUMAN (human, UniProt P80162 38-114).
T11 sequence: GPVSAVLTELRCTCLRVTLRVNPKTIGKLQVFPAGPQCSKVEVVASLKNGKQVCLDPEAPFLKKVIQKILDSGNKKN
The experiment in a line: BLI [Cont.].

Another test deals with T12, CXCL9_HUMAN (human, UniProt Q07325 23-125).
T12 sequence: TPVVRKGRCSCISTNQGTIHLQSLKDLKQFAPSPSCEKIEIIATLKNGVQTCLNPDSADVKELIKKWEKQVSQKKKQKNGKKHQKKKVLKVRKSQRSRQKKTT
Description: BLI.

For test [2], the target named is T8, CXCL10_HUMAN. Description: BLI.
The target in the test “CXCL13_HUMAN” is B4. Description: BLI.
Another test concerns the target T13, P1096_IXORI (Ixodes ricinus, UniProt A0A0K8RKE4 24-114).
T13 sequence: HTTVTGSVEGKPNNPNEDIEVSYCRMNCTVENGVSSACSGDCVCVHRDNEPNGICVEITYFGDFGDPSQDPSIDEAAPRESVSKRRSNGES
Description: BLI.

The target in another test is P1080_IXORI (Ixodes ricinus, UniProt A0A090XBL6 20-118). The experiment in a line: BLI.
For a further test, the target named is T14, P1095_IXORI (Ixodes ricinus, UniProt A0A0K8RCE3 24-112).
T14 sequence: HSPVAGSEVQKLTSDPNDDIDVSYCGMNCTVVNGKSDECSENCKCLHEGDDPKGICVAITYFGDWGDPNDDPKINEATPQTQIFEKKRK
Description: BLI.

For another test, the target named is T15, P1134_IXORI (Ixodes ricinus, UniProt A0A0K8RAI0 32-135).
T15 sequence: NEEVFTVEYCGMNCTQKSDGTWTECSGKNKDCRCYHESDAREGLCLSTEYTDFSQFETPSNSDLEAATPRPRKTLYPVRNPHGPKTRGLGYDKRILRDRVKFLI
The experiment in a line: BLI.

A further test has as its target T16, CCL25_HUMAN (human, UniProt O15444 24-150).
T16 sequence: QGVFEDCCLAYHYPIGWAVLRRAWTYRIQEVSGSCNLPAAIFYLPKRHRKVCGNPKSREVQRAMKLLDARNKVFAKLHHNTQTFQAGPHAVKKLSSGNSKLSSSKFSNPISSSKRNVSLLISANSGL
Description: yeast surface display FACS.

Sequence of CXCL12_HUMAN (P48061 22-89 limits assumed): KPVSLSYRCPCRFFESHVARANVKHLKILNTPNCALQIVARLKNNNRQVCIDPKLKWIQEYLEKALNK
Sequence of P1080_IXORI (A0A090XBL6 20-118): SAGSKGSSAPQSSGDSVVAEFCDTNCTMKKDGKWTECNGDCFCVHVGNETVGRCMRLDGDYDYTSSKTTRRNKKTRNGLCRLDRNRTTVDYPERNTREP
Sequence of CCL7_HUMAN (P80098 24-99 limits assumed): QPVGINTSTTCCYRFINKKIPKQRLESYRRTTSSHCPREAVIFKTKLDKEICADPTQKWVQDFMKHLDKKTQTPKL
Sequence of CCL2_HUMAN (P13500 24-99 limits assumed): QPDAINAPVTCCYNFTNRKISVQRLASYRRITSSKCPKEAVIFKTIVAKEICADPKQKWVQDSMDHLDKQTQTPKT

B1: P467_RHIPU (other)
chain: AEKSLDSDSSGEDYELWTQGCPFLVAENRTGFGTTVSCQHNCNGAIEKVPEGEPCYTIGEDGLGRMKLNLPYNCSLGECSGGVCVPNGRSDVCFKRTWEENNKAMA
In the case of B1, the “IC50, THP1 cell migration” value was 11.1 nM in the test with CCL7_HUMAN, 3.26 nM with CCL2_HUMAN, 8.74 nM with CCL5_HUMAN and 1.92 nM with CCL8_HUMAN.

B2: P1086_IXORI (other)
chain: GSKGQRASQVSETSITAEFCDTSCTQGTDKTWSGCSGDCFCVHVGNDTEGRCMRWDGDYPSAEEEE
As for B2, the binding result with CXCL7_HUMAN, in the test with CXCL8_HUMAN, with CXCL4_HUMAN, with CXCL11_HUMAN and with CXCL14_HUMAN was “no binding (tested: 300 nM)” each time. In addition, the equilibrium dissociation constant (Kd) was 26 nM with CXCL5_HUMAN, 34 nM in the test with CXCL2_HUMAN and 142 nM with CXCL12_HUMAN. For the same molecule, the “% cells over threshold fluorescence” value in the test with CXCL10_HUMAN [1] is 63%.

B3: EVA3_RHISA (other)
single chain: LVSTIESRTSGDGADNFDVVSCNKNCTSGQNECPEGCFCGLLGQNKKGHCYKIIGNLSGEPPVVRR
notes: also called Evasin-3; evasin 3
For B3, the binding result in the test with CXCL7_HUMAN, with CXCL4_HUMAN, with CXCL9_HUMAN, with CXCL11_HUMAN, with CXCL12_HUMAN and with CXCL10_HUMAN [2] was “no binding (tested: 300 nM)” in each case. Moreover, the binding result with CXCL14_HUMAN and in the test with CXCL13_HUMAN was “no binding (tested: 300 nM)” throughout. In addition, the Kd turned out to be 1.03 nM with CXCL6_HUMAN, 24.9 nM with CXCL5_HUMAN and 7.49 nM with CXCL2_HUMAN.

For the molecule B4, the binding result with P1096_IXORI, with P1095_IXORI and with P1134_IXORI was “no binding (tested: 300 nM)” each time. In the test with P1080_IXORI, this molecule came in with a Kd of 1110 nM.

B5: P1146_IXORI (other)
chain: GPDTKGDEESDENELFTVEYCGTNCTQLENGSWTPCSGNNGNCRCFHESDKTVGLCLSTEYTDFSEYPDPNSSEIIAAAPLPRERLIQ
Take B5: the binding result in the test with CCL25_HUMAN was “binds”.
